The values below come from patent US20230031280A1, “GLP-2 FUSION POLYPEPTIDES AND USES FOR TREATING AND PREVENTING GASTROINTESTINAL CONDITIONS” (SHIRE-NPS PHARMACEUTICALS, INC., priority 2017, published 2023).

Data set [1] is described as follows: SEC-MALS (Sepax Zenix C-150) peak distribution. The class given is physicochemical. The procedure:
A SEC-MALS assay was performed to determine the primary state (main peak) and its molecular weight. […] The GLP-2 peptibody O (albumin fusion) eluted at a molecular weight indicative of a monomer.
(§1) Stability analysis was then performed using SEC-MALS and NanoDSF. For SEC-MALS, a Sepax Zenix C-150 column was used. The mobile phase buffer was 1× PBS with a final concentration of 400 mM NaCl. The flow rate was 0.8 mL per minute. 20 micrograms of total protein was injected. For NanoDSF, 10 microliters of sample was used, without normalization of the samples.
as §1

A short description of data set [2]: Rat pharmacokinetics, intravenous dosing. The conditions noted are these: single dose 1 mg/ml. The class given is in vivo, Sprague-Dawley rats. How it is done: (§2) In the rat, four pharmacokinetic parameters were measured for Gattex® (a GLP-2 peptide having the A2G mutation): CL, Vc, Vt and Q. The same pharmacokinetic parameters were also measured for GLP-2 peptibodies A, B, E, J, K, L, M, O and P. The data is shown in Table 4. Male Sprague-Dawley rats (3 animals per group) were injected intravenously either via a jugular vein or tail vein catheter. A singles dose of test article was injected at a dose level of 1 mg/ml. The test articles were formulated in PBS pH 7.4 at a concentration of Blood samples were taken 0.083, 0.167, 0.33, 0.5, 1, 2, 6, 24, 48, 72, 120, 168, 240, and 336 hours post dose. Blood samples were collected into heparinized tubes and centrifuged for 5 minutes at 2000 xg within 10 minutes of collection. 100 μL of plasma were transferred to a 1.5 ml Eppendorf tube containing 2 μL of 50 mM PMSF. After mixing, the plasma samples were frozen at −80° C. until analysis.

A short description of data set [3]: Rat pharmacokinetics, subcutaneous dosing. The class given is in vivo, Sprague-Dawley rats. The conditions noted are these: single dose 1 mg/ml. How it is done: as §2, with “5.” for “4.”, “subcutaneously into the intra-scapular region of the animal.” for “intravenously either via a jugular vein or tail vein catheter.”, “[…]” for “1.5”, “mixing” for “mixing,”, “analysis. Meso Scale Discovery (MSD) ELISA was undertaken to assay for the concentration of the GLP-2 peptibodies.” for “analysis.”
A sandwich immunoassay was developed using either an anti-Human IgG1 Fc antibody or an anti-human albumin antibody for capture of the peptibody and a sulfotag labeled anti GLP-2 antibody for detection.

Data set [4] can be described thus: Rat pharmacokinetic comparability with/without C-terminal lysine. The class given is in vivo, Sprague-Dawley rats. The conditions noted are these: in vivo, 1 mg/kg. The procedure:
1 mg/kg of total GLP-2 peptibody K protein was administered subcutaneously to one group of six male Sprague-Dawley rats. 1 mg/kg of total GLP-2 peptibody K274 protein was administered intravenously to another group of six male Sprague-Dawley rats. 1 mg/kg of total GLP-2 peptibody B protein was administered subcutaneously to a third group of five male Sprague-Dawley rats. 1 mg/kg of total GLP-2 peptibody B264 protein was administered subcutaneously to a fourth group of five male Sprague-Dawley rats.
For all of the above groups, plasma samples were taken pre-dose, and at the following time points post-dose: 5 minutes (day 1), 10 minutes (day 1), 20 minutes (day 1), 30 minutes (day 1), 1 hour (day 1), 2 hours (day 1), 6 hours (day 1), 24 hours (day 2), 48 hours (day 3), 72 hours (day 4), 120 hours (day 6), 168 hours (day 8), 240 hours (day 11), and 336 hours (day 15).
Tables showing the pharmacokinetic data comparing intravenously administered GLP-2 peptibody K and GLP-2 peptibody K274 are in FIG. 10B. Tables showing the pharmacokinetic data comparing subcutaneously administered GLP-2 peptibody K and GL-2 peptibody K274 are in FIG. 10C.

The nature of data set [5]: Cynomolgus monkey pharmacokinetic study. The class given is in vivo, cynomolgus monkeys. The settings on record: 0.75 mg/kg. How it is done: Pharmacokinetics studies of teduglutide, GLP-2 Peptibody B and GLP-2 Peptibody K were formed in cynomolgus monkeys with citrulline assayed as a biomarker of GLP-2 concentration. In the study, 12.5 nmol/kg teduglutide was administered subcutaneously to a group of 6 male cynomolgus monkeys at day 1. Then for one set of 2 monkeys, 25 nmol/kg GLP-2 Peptibody B was administered intravenously at day 7, day 21, day 28, day 35, and day 42. For another set of 3 monkeys, 25 nmol/kg GLP-2 Peptibody B was administered subcutaneously at day 7, day 21, day 28, day 35, and day 42. For another set of monkeys, 5 nmol/kg GLP-2 Peptibody K was administered intravenously (2 monkeys) and subcutaneously (3 monkeys) at day 7, day 21, day 28, day 35, and day 42. For another set of monkeys, 25 nmol/kg GLP-2 Peptibody K was administered subcutaneously (3 monkeys) and intravenously (2 monkeys) at day 7, day 21, day 28, day 35, and day 42.

As to “GLP-2 peptibody K: GLP-2[A2G]-GGGGSGGGGSGGGGS linker-IgG1 Fc (LALA) with C-terminal lysine; SEQ ID NO: 10”, in data set [1], the “SEC-MALS Zenix C-150 main peak” value is on record as 80.2% main peak, 149,900 g/mol. For the same substance, in data set [2], the CL is on record as 53.7 mL/day/kg, the Q was found to be 61 mL/day/kg, the Vc is on record as 42.2 mL/kg and the Vt came to 46.4 mL/kg. Further, in data set [3], the CL was 68 mL/day/kg, the Vc worked out at 114 mL/kg and the ka result is “K (0.62 ka/day,”. In addition, the “pharmacokinetic comparability of K and K274” value in data set [4] was “identical from a pharmacokinetic point of view”. In data set [5] (MDPK, intravenous), this substance registered a CL of 19.3 mL/day/kg, a Q of 27.0 mL/day/kg, a Vc of 36.5 mL/kg and a Vt of 33.9 mL/kg. In addition, in data set [5] (MDPK, subcutaneous), the CL/F was determined as 32.4 mL/day/kg, the Vc came to 111 mL/kg and the “association constant (ka)” value is 1.70 day⁻¹. Further, in data set [5] (SDPK, intravenous), the CL stood at 17.2 mL/day/kg, the Q is listed as 29.1 mL/day/kg, the Vc was 32.3 mL/kg and the Vt worked out at 32.9 mL/kg. In addition, in data set [5] (SDPK, subcutaneous), the CL/F worked out at 33.0 mL/day/kg, the Vc is reported as 107 mL/kg and the “association constant (ka)” value was 1.56 day⁻¹.
